According to US20100190689:

Columns and labels:
Experiment in all cases: filter
[1] = system: T1, GST-MBNL1-41-del105 deletion of C-terminal 105 aa (all four zinc fingers kept) (Homo sapiens), Q9NR56-5; settings: C-terminal deletion has no significant influence on binding; same buffer
T1 sequence: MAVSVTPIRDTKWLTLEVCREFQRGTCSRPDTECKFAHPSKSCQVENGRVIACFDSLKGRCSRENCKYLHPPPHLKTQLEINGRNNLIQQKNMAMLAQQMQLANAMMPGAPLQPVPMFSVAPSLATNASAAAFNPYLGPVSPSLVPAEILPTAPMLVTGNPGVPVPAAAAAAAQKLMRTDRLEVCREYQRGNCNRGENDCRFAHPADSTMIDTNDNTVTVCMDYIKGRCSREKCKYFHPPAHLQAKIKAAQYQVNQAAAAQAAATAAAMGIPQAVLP

MBNL1-42 (Homo sapiens) = target: T2, MBNL1-42 (Homo sapiens) (UniProt Q9NR56); settings: stated collectively for 41 and 42 kD isoforms
T2 sequence: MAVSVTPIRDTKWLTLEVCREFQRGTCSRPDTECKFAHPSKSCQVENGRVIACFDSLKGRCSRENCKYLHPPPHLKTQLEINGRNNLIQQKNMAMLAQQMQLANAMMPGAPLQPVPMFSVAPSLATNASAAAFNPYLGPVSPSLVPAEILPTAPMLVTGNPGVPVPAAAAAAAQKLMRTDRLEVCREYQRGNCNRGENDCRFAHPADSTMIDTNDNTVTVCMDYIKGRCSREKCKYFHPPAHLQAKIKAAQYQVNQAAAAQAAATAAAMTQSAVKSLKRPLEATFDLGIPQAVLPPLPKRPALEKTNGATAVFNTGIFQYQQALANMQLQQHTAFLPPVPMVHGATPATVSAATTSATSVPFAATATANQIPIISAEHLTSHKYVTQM

[2] = system: T3, GST-MBNL1-41 full length (Homo sapiens), Q9NR56-5; settings: GST has no significant influence on binding; same buffer
T3 sequence: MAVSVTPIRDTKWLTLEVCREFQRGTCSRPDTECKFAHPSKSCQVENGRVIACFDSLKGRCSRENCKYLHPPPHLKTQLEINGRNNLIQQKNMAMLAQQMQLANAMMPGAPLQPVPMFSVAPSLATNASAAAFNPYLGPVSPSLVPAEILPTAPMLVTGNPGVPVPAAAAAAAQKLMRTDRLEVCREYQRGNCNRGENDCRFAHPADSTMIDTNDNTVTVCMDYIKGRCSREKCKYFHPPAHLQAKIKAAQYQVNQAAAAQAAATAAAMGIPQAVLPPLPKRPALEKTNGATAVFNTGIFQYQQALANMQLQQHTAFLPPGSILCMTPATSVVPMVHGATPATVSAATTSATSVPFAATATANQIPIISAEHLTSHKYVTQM

[3] = system: T4, MBNL1-41 full length, GST cleaved (Homo sapiens), Q9NR56-5; settings: nitrocellulose filter; 50 mM Tris pH 8.0, 50 mM NaCl, 50 mM KCl, 1 mM Mg, 0.1 mM DTT; value stated for all forms tested
T4 sequence: T3 sequence

Measured: Kd

CUG [poly(CUG)109]
10 nM: all assays above
